Test results reported in US11020478B2, “Methods for modulating angiogenesis of cancers refractory to anti-VEGF treatment” (INIS BIOTECH LLC, priority 2013, dated 2021).
Substitutions are numbered along the chain they refer to.

Legend:
HUVEC tube formation = assay: Capillary-like tube formation on Matrigel (HUVEC); type: cell-based, human; conditions: for tube formation induced by Gal1 / inhibitory activity in Gal1-induced formation of tubular structures (tubulogenesis): HUVEC
Description: (§1) Cells were incubated at 37° C. for periods ranging from 0 to 24 h and were visualized by phase-contrast microscopy. Capillary-like tubular structures were scored by counting the number of tubules (closed areas) per well in a phase-contrast microscope (Nikon E-100). For migration assays, ECs (4×10^4/well) transfected or not with specific siRNA were resuspended in M199 medium supplemented with 1% FCS. Cells were placed into the top chamber of the insert while the bottom well was filled with Gal1 or VEGF-A in the absence or presence of the above mentioned stimuli. After 24 hours, inserts were stained with crystal violet (Sigma) and analyzed in an inverted microscope. For each filter, 4 images were obtained and cells were counted with ImageJ software v1.46r (NIH). […] After 24 hours, cells were incubated in the presence of 0.8 μCi [^3H]-thymidine (NEN Dupont). Cells were then harvested and radioactivity was measured in a 1414 Liquid Scintillation Counter (Perkin Elmer). Tumor-associated ECs were identified by flow cytometry using Alexa Fluor 647-conjugated anti-CD34 (RAM34; eBioscience) and FITC-conjugated anti-CD45 (J33; Immunotech). Microvessel density (MVD) was determined by counting the number of CD31^+ microvessels present in 10 mm^2. Ten random 400× fields were counted.

HUVEC = assay: Binding of 488-Gal1 to ECs (flow cytometry); type: cell-based, human
rhVEGFR2 = target: T1, rhVEGFR2 (Homo sapiens, UniProt P35968); assay: FRET-based fluorescence spectroscopy, Gal1 binding to rhVEGFR2; conditions: 594-Gal1 added to 0.5 μM 488-VEGFR2, 25° C.
T1 construct: the recombinant extracellular domain of VEGFR2 expressed in human cells (Sino Biological Inc.); purchased Sino Biological Inc; host or cells: human cells
Description: Association between rhVEGFR2 and Gal1 was studied by a FRET-based fluorescence spectroscopy approach. NHS-activated fluorophores DyLight 488 (DL488, FRET donor) and DyLight 594 (DL594, FRET acceptor) were purchased from Thermo Scientific. For labeling, 4 mg rhGal1 and 100 μg of the recombinant extracellular domain of VEGFR2 expressed in human cells (Sino Biological Inc.) were modified with 200 μg of DL594 and 50 μg of DL488, respectively. Labeling was carried out in PBS buffer in the presence of 5 mM dithiothreitol (DTT) for 1 hour at room temperature following manufacturer's recommended protocol (Thermo Scientific). Labeled rhGal1 was purified by size exclusion chromatography using a Superdex-75 column (GE Life Sciences) generated in PBS containing 5 mM DTT and concentrated up to 200 μM using Centricon tubes (Millipore). Labeled VEGFR2 was dialyzed for 48 hours against PBS using a homemade microdialyzer. Fluorescence spectra were measured in a JASCO FP-6500 spectrofluorometer endowed with a Peltier effect thermostatized cell holder. A 4×4 mm fluorescence cell was employed. All binding assays were carried out at 25° C. in PBS buffer with the addition of 5 mM DTT. Excitation wavelength was set to 493 nm, with a bandpass of 1 nm. Emission spectra were recorded from 500 to 680 nm, using a bandpass of 3 nm. […] Fluorescence intensity at 518 nm was corrected for dilution and inner filter effects.

HUVEC migration = assay: EC migration assay (HUVEC); type: cell-based, human; set-up: inhibitory activity in Gal1-induced cell migration: dose or concentration left out as unconfirmed
Description: as §1

ECs = assay: EC proliferation assay ([3H]-thymidine); type: cell-based, human
Description: as §1

human recombinant Gal-1 = target: T2, human recombinant Gal-1 (Homo sapiens, UniProt P09382); assay: Affinity assay (SPR) of fully human anti-Gal1 monoclonal antibodies; type: binding; conditions: for Ka: kinetics model of interaction adjustment 1:1, BIAEvaluation 3.0
T2 construct: made in house
Text: Also conducted was an affinity assay (SPR) for the newly developed fully human anti-Gal1 monoclonal antibodies. In order to characterize affinities of the new anti-Gal-1 monoclonal antibodies, dose-response (RU) curves were collected of the interactions between the monoclonal antibodies and human recombinant Gal-1 (FIG. 14A and FIG. 14B).
By using the BIAEvaluation 3.0 software in a kinetics model of interaction adjustment 1:1, kinetic parameters, constants of dissociation (Kd) and affinity (Ka) were calculated.

[1] = system: Gal1 peptides with the consensus motif MAADGDF; assay: PEPperMAP Conformational Epitope Mapping Analysis; type: binding; conditions: antibody 10 μg/mL; all three peptide lengths
Description: Epitope mapping: In order to determine the specific conformational epitopes recognized by the new anti-Gal1 antibodies, a PEPperMAP® Conformational Epitope Mapping Analysis was performed.

T2 sequence (P09382 whole entry): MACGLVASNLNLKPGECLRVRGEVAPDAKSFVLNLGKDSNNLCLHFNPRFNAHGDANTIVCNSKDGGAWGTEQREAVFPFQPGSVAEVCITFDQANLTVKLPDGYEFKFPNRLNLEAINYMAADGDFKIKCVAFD
T1 sequence (P35968 20-764 limits assumed): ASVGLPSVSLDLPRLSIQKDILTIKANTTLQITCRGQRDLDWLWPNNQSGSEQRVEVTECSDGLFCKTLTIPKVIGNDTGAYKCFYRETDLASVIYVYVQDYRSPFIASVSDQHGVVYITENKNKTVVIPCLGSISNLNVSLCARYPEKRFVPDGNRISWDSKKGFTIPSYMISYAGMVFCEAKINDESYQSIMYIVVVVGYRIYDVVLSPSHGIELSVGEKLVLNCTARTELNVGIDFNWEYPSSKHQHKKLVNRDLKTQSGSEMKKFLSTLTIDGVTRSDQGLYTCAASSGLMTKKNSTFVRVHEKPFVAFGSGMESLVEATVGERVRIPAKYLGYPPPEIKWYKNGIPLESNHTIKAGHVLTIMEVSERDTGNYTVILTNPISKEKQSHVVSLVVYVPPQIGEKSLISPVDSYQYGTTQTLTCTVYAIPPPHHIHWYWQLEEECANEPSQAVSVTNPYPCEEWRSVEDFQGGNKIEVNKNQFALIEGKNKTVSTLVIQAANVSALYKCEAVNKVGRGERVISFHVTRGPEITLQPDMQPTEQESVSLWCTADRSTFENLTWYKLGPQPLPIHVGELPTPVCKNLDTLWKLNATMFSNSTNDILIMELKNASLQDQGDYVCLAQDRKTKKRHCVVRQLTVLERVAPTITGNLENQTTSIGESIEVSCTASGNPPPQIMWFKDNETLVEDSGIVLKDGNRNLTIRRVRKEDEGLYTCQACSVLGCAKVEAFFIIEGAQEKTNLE

## Gal1^N46D: Gal1 mutant lacking carbohydrate-binding activity [reference compound]
HUVEC tube formation
  impact on EC response: no impact
HUVEC; any of the concentrations tested
  binding to ECs: no binding

## Gal1: recombinant Galectin-1, glycan-binding protein (SEQ ID NO: 2)
rhVEGFR2
  dissociation constant (Kd): low micromolar range

## O[C@H]1[C@H]2[C@H](O)CCCN2C[C@H]1O [swainsonine, reference compound]
HUVEC migration
  EC migration induced by Gal1: almost completely prevented
HUVEC tube formation
  tube formation induced by Gal1: almost completely prevented
ECs
  EC proliferation induced by Gal1: almost completely prevented
HUVEC
  Gal1 binding to ECs in presence of inhibitor: almost completely abrogated

## OC[C@H]1O[C@@H](O[C@H]2[C@H](O)[C@@H](O)C(O)O[C@@H]2CO)[C@H](O)[C@@H](O)[C@H]1O (stereo partly drawn) [lactose, reference compound]
HUVEC migration
  EC migration induced by Gal1: almost completely prevented
HUVEC tube formation
  tube formation induced by Gal1: almost completely prevented
ECs
  EC proliferation induced by Gal1: almost completely prevented

## CC(=O)N[C@H]1[C@@H](OCc2ccccc2)O[C@H](CO)[C@H](O)[C@@H]1O [benzyl-α-GalNAc]
HUVEC
  Gal1 binding to ECs in presence of inhibitor: only partially inhibitory

B1: Clone 21: fully human anti-Gal1 monoclonal antibody (IgG1) from scFv library; VH SEQ ID NO: 15, VK SEQ ID NO: 19 (antibody, V domains shown)
VH: EVQLLESGGGLVQPGGSLRLSCAASGFTFSSYAMSWVRQAPGKGLEWVSEIGRVGVNTLYADSVKGRFTISRDNSKNTLYLQMNSLRAEDTAVYYCAKKATQFDYWGQGTLVTVSS
VL: DIQMTQSPSSLSASVGDRVTITCRASQSISSYLNWYQQKPGKAPKLLIYRASRLQSGVPSRFSGSGSGTDFTLTISSLQPEDFATYYCQQTIGPPDTFGQGTKVEIKR
modifications: IgG1 format
Human recombinant Gal-1
  interaction with human recombinant Gal1: high specific interactions
  Ka: 649000 M⁻¹
[1]
  binding activity against epitope-like spots formed by adjacent peptides with consensus motif MAADGDF: moderate to high binding activity
HUVEC migration
  inhibitory activity in Gal1-induced cell migration: significantly blocked
HUVEC tube formation
  inhibitory activity in Gal1-induced formation of tubular structures (tubulogenesis): significantly blocked

B2: Clone 42: fully human anti-Gal1 monoclonal antibody (IgG1) from scFv library; VH SEQ ID NO: 23, VK SEQ ID NO: 27 (antibody, V domains shown)
VH: EVQLLESGGGLVQPGGSLRLSCAASGFTFSSYAMSWVRQAPGKGLEWVSGISGSGDYTSYADSVKGRFTISRDNSKNTLYLQMNSLRAEDTAVYYCAKGYGAFDYWGQGTLVTVSS
VL: B1 VL with R50G, R53W, T91S, I92A, G93N, P94Y, D96S
modifications: IgG1 format
Human recombinant Gal-1
  interaction with human recombinant Gal1: high specific interactions
  Ka: 7.63e+06 M⁻¹
[1]
  binding activity against epitope-like spots formed by adjacent peptides with consensus motif MAADGDF: higher binding activity
HUVEC migration
  inhibitory activity in Gal1-induced cell migration: significantly blocked
HUVEC tube formation
  inhibitory activity in Gal1-induced formation of tubular structures (tubulogenesis): significantly blocked
